± gives the standard deviation.
Assay: protein stability index of a GFP-peptide fusion (GPS, HEK-293T) (PSI 1-6); higher = more stable
[1] = treatment: DMSO, c terminus: a fixed tail appended
[2] = treatment: MLN4924 1 uM, 8 h, c terminus: a fixed tail appended
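Note: 24-mer peptide tiles fused after GFP, lentivirally expressed, FACS-sorted into six equal bins by GFP/DsRed ratio, decoded by Illumina sequencing, PSI is the read-weighted mean bin number.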

Row | Sequence | protein stability index [1] | protein stability index [2] | protein stability index (treatment: DMSO, c terminus: native) | protein stability index (treatment: MLN4924 1 uM, 8 h, c terminus: native)
1 | VLTLPFDVVKTQRQVALGAMEAVR [SLC25A39] | 2.51 ± 0.36 | 2.71 ± 0.26 |  | 
2 | EVGSMKIQSGAWVCYQYPGYRGYQ [CRYBA1] | 2.08 ± 0.24 | 2.32 ± 0.11 |  | 
3 | KPYAVMVFQTEQKNLFRLEMDMVV [N4BP2L1] | 2.7 ± 0.1 | 2.96 ± 0.88 |  | 
4 | FDKLALRFHGRLLFLKDVLGDEIC [KCTD13] | 2.48 ± 0.41 | 2.34 ± 0.18 |  | 
5 | ISKNSEKKMESEEDSNWEKSPDNE [GOLPH3L] | 5.57 ± 0.21 | 5.58 ± 0.1 |  | 
6 | SIAFRLRLASFDSSGKLICSRTTG [GMCL1] | 2.52 ± 0.4 | 2.09 ± 0.34 |  | 
7 | LIIFDKQSSQRMRQNLKLLVEETS [CEP70] | 2.1 ± 0.25 | 2.04 ± 0.35 |  | 
8 | LETQAQVCQALAQVDGGANFSVDR [CPOX] | 4.85 ± 0.18 | 4.96 ± 0.14 |  | 
9 | EIKDLILPKISDPNFVKDLEEDLY [PI4K2A] | 3.16 ± 0.5 | 3.12 ± 0.38 |  | 
10 | FLSENATVAAETRAVIAWMEKIPF [CPXM2] | 2.04 ± 0.12 | 2.28 ± 0.5 |  | 
11 | ADLRTNHTLNNLVEKLLREEAEGA [TRIM35] | 4.32 ± 0.17 | 4.43 ± 0.2 |  | 
12 | RDEESFFGERRIPRGRRISVICRS [ALKBH7] | 3.24 ± 0.24 | 3.65 ± 0.24 |  | 
13 | IKYFRVDFYEAMDDYTSAIEVQPN [TTC32] | 2.48 ± 0.51 | 2.1 ± 0.46 |  | 
14 | TIYGLHALEQGGLRAATMSAVEAA [PYCR3] | 2.85 ± 0.65 | 3.22 ± 0.8 |  | 
15 | VCCCELGVNPDQVEKIRKLPNTLL [ANKRD40] | 2.26 ± 0.36 | 2.82 ± 0.32 |  | 
16 | SSFTWSVPSSGYGAVTASKHSNSP [SMTNL2] | 3.82 ± 0.26 | 3.87 ± 0.095 |  | 
17 | APSPQEALVRLRETEEMLGKKQEY [CHMP4C] | 5.26 ± 0.25 | 5.12 ± 0.096 |  | 
18 | QSLTQRLHALKLRSPDASPSRAPP [GNAS] | 4.06 ± 0.17 | 4.14 ± 0.22 |  | 
19 | SPSPPVEVKIEEPVSMEMDNHMSD [INTS3] | 5.59 ± 0.19 | 5.52 ± 0.17 |  | 
20 | PQLVSSAREGSSEPWLPLTDGRSP [PLEKHN1] | 4.83 ± 0.25 | 4.58 ± 0.085 |  | 
21 | SDWFNFHGHMCIAFELLGKNTFEF [CLK3] | 3 ± 0.3 | 2.94 ± 0.31 |  | 
22 | SNWFVWVTQMNHIPMHIDHDRNMD [FADS1] | 2.09 ± 0.45 | 2.19 ± 0.13 |  | 
23 | CSGVACLVKDNPQRSYFLRIFDIK [WASL] | 2.16 ± 0.34 | 2.27 ± 0.7 |  | 

Row | Sequence | protein stability index [1] | protein stability index [2] | protein stability index (treatment: DMSO, c terminus: native) | protein stability index (treatment: MLN4924 1 uM, 8 h, c terminus: native)
24 | FKAEVDPLSDKGTTPLQLAIIRER [ASB7] | 3.82 ± 0.34 | 3.85 ± 0.25 |  | 
25 | VASEMRFVQDLVRALEQEKLQGVE [DAPK3] | 4.42 ± 0.44 | 4.73 ± 0.37 |  | 
26 | IWDALDWTMQAYERNFWDPSPQLD [WDR41] | 2.2 ± 0.27 | 2.02 ± 0.34 |  | 
27 | LLDEIVPVYRRDCHEEVYAGSHQY [ACBD3] | 3.03 ± 0.13 | 3.13 ± 0.26 |  | 
28 | NVLSVNLPDNFTLKEDGMETVPWF [TPH1] | 2.75 ± 0.21 | 2.92 ± 0.17 |  | 
29 | CMDQERLRRESTSQKEMDKAETKT [FCHO1] | 5.15 ± 0.65 | 5.21 ± 0.14 |  | 
30 | GSSETETEPPVALAPGPAPTRCLP [ESRRA] | 5.23 ± 0.28 | 5.16 ± 0.11 |  | 
31 | NILFDFVKKKKEEGVIDSSDKEIV [EIF5] | 3.65 ± 0.12 | 3.74 ± 0.27 |  | 
32 | SDVDQLYLIIRTLGKLIPRHQSIF [CDKL4] | 3 ± 1.2 | 2.67 ± 0.77 |  | 
33 | SNFPRQYFALRKILKQLIADVTLD [TRIM39] | 2.54 ± 0.58 | 2.19 ± 0.53 |  | 
34 | YTGYCWCVTPNGRPISGTAVAHKT [SMOC2] | 2.73 ± 0.55 | 2.51 ± 0.13 |  | 
35 | CPHCGDRTFYDPEPILCPCFMPN [PRAME] |  |  | 3.98 ± 0.25 | 3.99 ± 0.48
36 | HSKASLPTGEGSISHEEQKSVRLA [CHCHD6] | 5.14 ± 0.2 | 5.15 ± 0.17 |  | 
37 | DFSVSLKASGKNKHFKVQLVDNVY [NCK2] | 2.27 ± 0.25 | 2.25 ± 0.19 |  | 
38 | LAVYHRLWDRAYVRLKPALQRLDF [RETREG3] | 2.31 ± 0.38 | 2.56 ± 0.4 |  | 
39 | KGSLPQPPITEVESQVFSEKLATD [ZNF232] | 5.44 ± 0.17 | 5.24 ± 0.24 |  | 
40 | YLHPNSYSCACLASGSVLRLVDAV [HDAC6] | 2.82 ± 0.36 | 2.32 ± 0.066 |  | 
41 | HQRIHTGEKPFECNECGKAFRWGA [ZNF232] | 2.64 ± 0.5 | 2.61 ± 0.67 |  | 
42 | GAGHFEVVKLLVSHGANVNHTTVT [FEM1B] | 2.23 ± 0.51 | 2.26 ± 0.2 |  | 
43 | SLLVTELGSSRTPETVRMVLSNME [IMPA1] | 3.15 ± 0.39 | 3.4 ± 0.23 |  | 
44 | EELEDSKALLYLPIAPEVEDPEEN [RBBP5] | 5.5 ± 0.6 | 5.24 ± 0.42 |  | 
45 | KSLLPHLKTGNSSPGIGAVYLANQ [RTP4] | 2.71 ± 0.16 | 2.77 ± 0.2 |  | 
46 | AIQGISEKEKAEIEAKEACDWLRA [DLC1] | 4.69 ± 0.42 | 4.72 ± 0.39 |  | 

Row | Sequence | protein stability index [1] | protein stability index [2] | protein stability index (treatment: DMSO, c terminus: native) | protein stability index (treatment: MLN4924 1 uM, 8 h, c terminus: native)
47 | GVTEEQEGFADGFVKALDDLHKMN [JUNB] | 4.69 ± 0.17 | 4.47 ± 0.32 |  | 
48 | SQAPDGRRKSEAGSGAASSSGEDK [CDC25B] | 5.65 ± 0.18 | 5.58 ± 0.35 |  | 
49 | AEEGWSPTPKCLRLCFFPFVENGH [CFHR2] | 1.96 ± 0.28 | 2.12 ± 0.32 |  | 
50 | FDKEWVAKQTKRMLDMKVNPIQGL [COX4I1] | 2.46 ± 0.44 | 2.78 ± 0.41 |  | 
51 | FFIRTSDSFDKFDFCEPSFVTGNC [PCMTD2] | 2.52 ± 0.33 | 2.42 ± 0.26 |  | 
52 | PAVENKQQIGDAIRMIVRGTLGSC [PLK2] | 3.03 ± 0.32 | 3.03 ± 0.19 |  | 
53 | DLDAKIREALVLRSVRVRLLLSFW [PLD5] | 3.52 ± 0.33 | 2.53 ± 0.86 |  | 
54 | MLERRYTPYPNLYPDQSPSEDWTM [CLCN6] | 3 ± 0.3 | 3.16 ± 0.23 |  | 
55 | TNHGYRVQVENPERFSSAPCLLGS [TRIM35] | 3.4 ± 0.17 | 3.29 ± 0.31 |  | 
56 | DPTNWLRCYYYEDTISTIKSVAWE [NCF4] | 2.12 ± 0.47 | 2.47 ± 0.13 |  | 
57 | AIMCVSCICWSPFLVTMANIGING [PTGFR] | 3.42 ± 0.095 | 3.71 ± 0.45 |  | 
58 | DLHRQFPFHEMFVSRGGHGQQDLF [TBC1D10A] | 2.73 ± 0.17 | 2.8 ± 0.34 |  | 
59 | VAFLEQRASALLASCSKNCTNSPA [FBXO34] | 2.9 ± 0.25 | 2.76 ± 0.28 |  | 
60 | FDHLQNRLIATKNPEEIRGGGLLK [TENT5C] | 3.73 ± 0.26 | 4.09 ± 0.36 |  | 
61 | GGMSHLHTFRATFQEPLYPALRLW [TRIM14] | 2.21 ± 0.22 | 2.13 ± 0.091 |  | 
62 | TITTAAATSVTVPGAGVPSGSGGT [ZBTB22] | 4.9 ± 0.19 | 4.85 ± 0.26 |  | 
63 | GSSGGQQPSGMKEGVKRYEQEHAA [CHCHD6] | 5 ± 0.054 | 5.47 ± 0.21 |  | 
64 | HRTVKLVPWSQCLQNFLLHGTKNV [WSB1] | 2.19 ± 0.17 | 1.99 ± 0.21 |  | 
65 | AIVDLISRQYDKFLTHFILMNDVI [FBXO33] | 3.1 ± 0.45 | 3.36 ± 0.28 |  | 
66 | FDSDWYTSRNLIGGADIIVIKYNV [RHOBTB3] | 2.73 ± 0.52 | 3.12 ± 0.4 |  | 
67 | RDEHRARAMKIPFTNDKIINLPVE [NFE2L1] | 4.12 ± 0.36 | 3.95 ± 0.14 |  | 
68 | SHKERFDPSGKGKGKAGRVDLVDE [TPPP] | 5.04 ± 0.46 | 5.24 ± 0.2 |  | 
69 | KDYNNLWIIKKHNTNSDPLDPSFP [POMT2] | 3.15 ± 0.19 | 3.29 ± 0.26 |  | 

Row | Sequence | protein stability index [1] | protein stability index [2] | protein stability index (treatment: DMSO, c terminus: native) | protein stability index (treatment: MLN4924 1 uM, 8 h, c terminus: native)
70 | MGIVNLNIHMNFTHICRSHNSINQ [SLC2A12] | 2.73 ± 0.52 | 2.9 ± 0.46 |  | 
71 | QTASRSLVLSEDRKSVRYTRQKKN [TRIM15] | 4.83 ± 0.27 | 4.8 ± 0.24 |  | 
72 | EQTFSPAKSLSFRKGELVTASKAI [ADD1] | 3.99 ± 0.17 | 4.14 ± 0.28 |  | 
73 | DMMVMGRKPDPMCVFTYVQSLYNH [SMTNL2] | 2.28 ± 0.24 | 2.2 ± 0.34 |  | 
74 | QERERVLTHFSRRYCQCNPDDSTS [PSD2] | 3.88 ± 0.14 | 3.93 ± 0.14 |  | 
75 | ANIEEVLQRGEALSALDSKANNLS [SEC22B] | 4.94 ± 0.16 | 4.89 ± 0.18 |  | 
76 | GTTVTFDDLMGILCKSVLEIERAI [FEM1C] | 2.31 ± 0.26 | 2.14 ± 0.42 |  | 
77 | STPSDNIVRRFLNICENTEGAIAV [CDC14A] | 3.66 ± 0.39 | 3.66 ± 0.14 |  | 
78 | EPNRLETGEAGEELDLRLRLAQPS [RTN2] | 5.17 ± 0.13 | 5.28 ± 0.17 |  | 
79 | FLLCARSLLRGFLLQNEFVGFMWR [MCOLN1] | 2.55 ± 0.34 | 2.39 ± 0.79 |  | 
80 | DSGVGASLTRSNRHRLRWHSFQSS [DLC1] | 3.03 ± 0.13 | 3.04 ± 0.21 |  | 
81 | HTGEKPYTCHECGDSFSHSSNRIR [ZNF263] | 2.67 ± 0.2 | 3.4 ± 0.48 |  | 
82 | PETHIFTAPEEVPKVSDQALVSAH [DMRTC1] | 4.96 ± 0.34 | 4.92 ± 0.11 |  | 
83 | LRTYLARLPWAGQLTKELPLSPAF [PBXIP1] | 2.22 ± 0.64 | 2.16 ± 0.22 |  | 
84 | TSSLFRTEPMAWNETADLGLDIGA [CTNNB1] | 3.71 ± 0.24 | 3.82 ± 0.59 |  | 
85 | DKDKSPESHKAKNESWIKSHFSRL [C10orf62] | 3.46 ± 0.25 | 3.48 ± 0.31 |  | 
86 | GVNYPKPMVNHAEASRLNIERMKQ [CRY1] | 4.2 ± 0.3 | 4.11 ± 0.62 |  | 
87 | PVHLVDKLPLPSTLRSHLKSFSMA [RAB40A] | 2.6 ± 0.085 | 2.63 ± 0.19 |  | 
88 | VNIMRTYTYEKLLWTTSRVLKVLS [CTNNB1] | 2.18 ± 0.14 | 2.41 ± 0.67 |  | 
89 | GGGGCDRYEPLPPSLPAAGEQDCC [KCNA3] | 5.02 ± 0.33 | 5.06 ± 0.29 |  | 

From the supplement of paper PMC10567573
